This is an account of results in patent US20220193133A1 (CENTURY THERAPEUTICS, published 2022).

Read-outs that look alike come from different tables or passages of the source.

First the molecules themselves.
B3: humanized B11 VHH CAR (hyLYSO_CW_P01_B11) on Nurkat cells (other, not shown: small tags and cut ends)
chain: EVQLLESGGGLVQPGGSLRLSCAASGGIFSGGRMGWFRQAPGKEREFVAAVITRGGSTYYADSVKGRFTISRDNSKNTLYLQMNSLRAEDTAVYYCAASEVTYDEGRYIGTKSTYDTWGQGTQVTVSS
notes: also called B11 (p1649); P1649

For series [1], the target named is T1, chicken lysozyme (Hen Egg Lysozyme) (chicken, UniProt P00698 19-147, biotinylated).
T1 construct: also called HEL; chicken egg white lysozyme
T1 sequence (P00698 19-147): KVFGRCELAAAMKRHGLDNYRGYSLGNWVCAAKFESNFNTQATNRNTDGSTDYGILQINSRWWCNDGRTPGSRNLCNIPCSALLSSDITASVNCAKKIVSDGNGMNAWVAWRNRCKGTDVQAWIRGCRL
Kind of series: flow cytometry, CAR Jurkat cells + 10 ug/mL biotinylated lysozyme, streptavidin-APC, % positive cells.

Series [2] addresses T2, human lysozyme (human, UniProt P61626 19-148, biotinylated).
T2 construct: also called human lysozyme protein
T2 sequence (looked up): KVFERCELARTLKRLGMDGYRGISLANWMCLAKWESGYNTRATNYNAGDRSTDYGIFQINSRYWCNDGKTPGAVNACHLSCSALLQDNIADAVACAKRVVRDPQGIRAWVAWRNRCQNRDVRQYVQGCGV
Described as above.

The target of series [3] is T1, chicken lysozyme (Hen Egg Lysozyme). The experiment in a line: flow cytometry, CAR Nurkat cells + biotinylated HEL, streptavidin-APC, % positive cells.
In series [4] the target is T3, B11 protein (humanized B11 VHH as ELISA antigen).
T3 construct: Panning used B11-Fc; the ELISA legend says only 'B11 protein'
The experiment in a line: periplasmic extract ELISA, absorbance 450 nm, single point.

The target in series [5] is T4, D04 protein (humanized D04 VHH as ELISA antigen).
T4 construct: Panning used biotinylated D04-Fc; the ELISA legend says only 'D04 protein'
The description is as above.

The target of series [6] is T3, B11 protein (humanized B11 VHH as ELISA …). The description is as above. The source holds these as a separate data set.
The target of series [7] is T5, D04-his tagged VHH (humanized D04).
T5 construct: also called LysoD04.His; D04 his-tagged protein
The experiment in a line: Octet (BLI) specificity analysis, sample vs analyte.

In series [8] the target is T6, D04-Fc (humanized D04 VHH Fc fusion).
T6 construct: also called LysoD04.Fc; not shown: Fc
The series is described as above.

For series [9], the target named is total human IgG from sera. The series is described as above.
Series [10] concerns the target Fc-y fragment. The series is described as above.
In series [11] the target is PROT939 (an off target VHH-fc soluble). The series is described as above.
Series [12] deals with the molecule itself. The description is as above.
The target in series [13] is T7, B11-his tagged VHH (humanized B11).
T7 construct: also called B11-his protein; B11 his-tagged protein
Kind of series: Octet (BLI), anti-idiotype VHH-Fc vs his-tagged VHH; table title prints D04-his, its footnote prints B11-his.

In series [14] the target is T5, D04-his tagged VHH (humanized D04). Kind of series: Octet (BLI), anti-idiotype VHH-Fc vs his-tagged VHH; table title prints B11-his, paragraph 353 ties these values to D04.
In series [15] the target is B3. Kind of series: flow cytometry, VHH-Fc on CAR Nurkat cells, 3-fold dilutions 50 to 0.02 nM, anti-Fc APC, %Fc positive cells. From the text:
[…] Fc-fusion protein was detected via anti-Fc APC, and the percentage of cells that were positive for this detection method are shown. […] Controls include (i) no VHH-Fc added and (ii) the anti-VHH cocktail detection reagent (far right). The samples shown in the graphs for each protein appear in the order as specified in the legend.

Series [16] addresses T4, D04 protein (humanized D04 VHH as ELISA …). Kind of series: periplasmic extract ELISA, absorbance 450 nm, single point. This is another data set of the same source.

B1: p253 (other)
CAR: QVQLVESGGGLVQAGGSLRLSCAASGSSFSIYDVGWFRQAPGKEREFVAATIETGGHTSYADSVKGRFTISRDNAKNTVYLQMNSLKPEDTAVYYCYAKIVYDQGPSYYYWGQGTQVTVSS
For the molecule B1, the binding result in [1] is “binds”; in series [2], “no binding (tested: 10 ug/mL)”.

B2: LYSO_CW_P01_B11 VHH CAR (camelid B11) on Jurkat cells (other, not shown: small tags and cut ends)
chain: QVQLVESGGGLVQAGGSLRLSCAASGGIFSGGRMGWFRQAPGKEREFVAAVITRGGSTYYADSVKGRFTISRDNAKNTVYLQMNSLKPEDTAVYYCAASEVTYDEGRYIGTKSTYDTWGQGTQVTVSS
notes: camelid (not humanized) VHH; also called B11(p242)
Take B2: the values for the binding result in series [1] and in [2] were “binds” and “no binding (tested: 10 ug/mL)”, respectively.
As to B3, in [3], the binding result was “binds”.

B4: huD04_CNTY1_D11 anti-idiotype VHH (periplasmic extract) (VHH)
VHH: EVQLLESGGGLVQPGGSLRLSCAASGSTFSYYYMGWYRQAPGKERELVSAISSGGSIYYADSVKGRFTISRDNSKNTLYLQMNSLRAEDTAVYYCARRTYYGDEADYWGQGTQVTVSS
notes: Screened as periplasmic extract; also called VHH of AMD87
For B4, the binding result in series [4] is recorded as “no binding”.

B5: p248 (other)
CAR: QVQLVESGGGLVQAGGSLRLSCAASGSIFSFYDVGWFRQAPGKEREFVAASITKGGGTYYVDSVKGRFTISRDNAKNTVYLQMNSLKPEDTAVYYCALATPHGYDFWGQGTQVTVSS
Turning to B5, the binding result in series [1] and in series [2] was “no binding (tested: 10 ug/mL)” in each case.

B6: huB11_CNTY1_E11 anti-idiotype VHH (periplasmic extract) (VHH)
VHH: EVQLLESGGGLVQPGGSLRLSCAASGFAFSDYVMGWYRQAPGKEREFVSAIRSTTSTYYADSVKGRFTISRDNSKNTLYLQMNSLRAEDTAVYYCAADVWSGYEYDYWGQGTQVTVSS
notes: Screened as periplasmic extract; also called VHH of AMD75
Regarding B6, the binding result in series [5] is “no binding”.

B7: huB11_CNTY1_B11 anti-idiotype VHH (periplasmic extract) (VHH)
VHH: EVQLLESGGGLVQPGGSLRLSCAASGLAFSSYAMGWYRQAPGKEREFVSVISGTGETLYADSVKGRFTISRDNSKNTLYLQMNSLRAEDTAVYYCAADVWSGYEYDYWGQGTQVTVSS
notes: Screened as periplasmic extract; also called VHH of AMD76
For the molecule B7, the figures for the binding result in series [6] and in [5] were “binds” and “no binding”, respectively.

B8: AMD88 (huD04_CNTY1_D10 anti-idiotype VHH IgG1-Fc fusion) (Fc fusion)
chain: EVQLLESGGGLVQPGGSLRLSCAASGRTSSNYVIGWYRQAPGKEREFVSAISGGGSTYYADSVKGRFTISRDNSKNTLYLQMNSLRAEDTAVYYCATRIYTARGAGDYWGQGTQVTVSS
notes: not shown: IgG1 Fc
Take B8: the Response in [7] is 0.0923; in series [8], 2.18; in series [9], -0.0338; in series [10], -0.0261; in series [11], -0.024; in series [12], 0.149. Besides, the Response in [13] was -0.0183; in series [14], 0.289. Moreover, in [14], the affinity, expressed as Kd, was 72.3 nM. The koff in [14] is 0.0425 s⁻¹. This molecule yielded a kon in series [14] of 588000 M⁻¹ s⁻¹. The binding result in series [15] is “no binding (tested: 50 nM)”.

B9: AMD77 (huD04_CNTY1_A11 anti-idiotype VHH IgG1-Fc fusion) (Fc fusion)
VHH: EVQLLESGGGLVQPGGSLRLSCAASGFTSSNYVMGWYRQAPGKEREFVSAIGSGGSTYYADSVKGRFTISRDNSKNTLYLQMNSLRAEDTAVYYCAAEIYTSGARDYWGQGTQVTVSS
modifications: Biotinylated in the FIG. 18 and FIG. 19 assays; the biotin sites are not stated.
notes: not shown: IgG1 Fc (and any hinge or linker to it)
As for B9, the Response in series [7] was 0.337; in series [8], 2.67; in series [9] it was -0.0155; in [10] it was -0.009; in series [11], -0.0053; in series [14] it was 0.497. This molecule displayed a Kd in [14] of 2.08 nM. This molecule displayed a koff in series [14] of 0.00145 s⁻¹. Moreover, the kon in [14] was found to be 696000 M⁻¹ s⁻¹.

B10: huD04_CNTY1_B12 anti-idiotype VHH (periplasmic extract) (VHH)
VHH: EVQLLESGGGLVQPGGSLRLSCAASGRTSSNYVMGWYRQAPGKEREGVSAITSGGSTYYADSVKGRFTISRDNSKNTLYLQMNSLRAEDTAVYYCAANLYSRTGAYDYWGQGTQVTVSS
notes: Screened as periplasmic extract; also called VHH of AMD82
As to B10, the binding result in series [4] is on record as “no binding”.

B11: huD04_CNTY1_D10 anti-idiotype VHH (periplasmic extract) (VHH)
VHH: EVQLLESGGGLVQPGGSLRLSCAASGRTSSNYVIGWYRQAPGKEREFVSAISGGGSTYYADSVKGRFTISRDNSKNTLYLQMNSLRAEDTAVYYCATRIYTARGAGDYWGQGTQVTVSS
notes: Screened as periplasmic extract; also called VHH of AMD88
Take B11: the binding result in series [4] is “no binding”.

B12: huD04_CNTY1_D12 anti-idiotype VHH (periplasmic extract) (VHH)
VHH: EVQLLESGGGLVQPGGSLRLSCAASGFTSSNYVMGWYRQAPGKEREGVSAISSSGRTYYADSVKGRFTISRDNSKNTLYLQMNSLRAEDTAVYYCAAAYYSGYGETDYWGQGTQVTVSS
notes: Screened as periplasmic extract; also called VHH of AMD86
As to B12, the binding result in series [4] is “no binding”; in series [16], “binds”.

B13: LYSO_CW_P01_D04 VHH CAR (camelid D04) on Jurkat cells (other, not shown: small tags and cut ends)
chain: QVQLVESGGGLVQAGGSLRLSCAASGRIFSIYDTIGWFRQAPGKEREFVAATITTAGITTYDDSVKGRFTISRDNAKNTVYLQMNSLKPEDTAVYYCYVRVGRGDYWGQGTQVTVSS
notes: camelid (not humanized) VHH; also called D04 (p244)
Regarding B13, the binding result in series [1] is “binds”; in series [2], “no binding (tested: 10 ug/mL)”.

B14: humanized D04 VHH CAR (hyLYSO_CW_P01_D04) on Nurkat cells or primary T cells (other, not shown: small tags and cut ends)
chain: EVQLLESGGGLVQPGGSLRLSCAASGRIFSIYDTIGWFRQAPGKEREFVAATITTAGITTYDDSVKGRFTISRDNSKNTLYLQMNSLRAEDTAVYYCYVRVGRGDYWGQGTQVTVSS
notes: also called D04 (p1648); P1650
B14: the binding result in [3] was “binds”.
